Measured values as given in paper PMC9129080, “Control of fruit softening and Ascorbic acid accumulation by manipulation of SlIMP3 in tomato” (Plant Biotechnology Journal, 2022).

Columns and labels:
[1] = substrate: O=P(O)(O)O[C@@H]1[C@@H](O)[C@H](O)[C@@H](O)[C@H](O)[C@@H]1O; experiment: phosphate release, malachite green; type: biochemical, Solanum lycopersicum; settings: 3.5 mM MgCl2, 50 mM Tris-Cl pH 7.0, 25 °C
[2] = substrate: O=P(O)(O)OC1O[C@@H](CO)[C@@H](O)[C@@H](O)[C@@H]1O; experiment: phosphate release, malachite green; type: biochemical, Solanum lycopersicum; settings: 3.5 mM MgCl2, 50 mM Tris-Cl pH 7.0, 25 °C

B1: SlIMP3 (Solanum lycopersicum) (protein)
chain: MAQNGSVEQFLDVAVEAAKKAGEIIREGFYKTKHVEHKGMVDLVTETDKACEDFIFNHLKQRFPSHKFIGEETTAACGNFELTDEPTWIVDPLDGTTNFVHGFPFVCVSIGLTIEKKPTVGVVYNPIIDELFTGIDGKGAFLNGKPIKVSSQSELVKALLATEAGTNRDKLVVDATTGRINSLLFKVRSLRMCGSCALNLCGVACGRLDLFYELEFGGPWDVAGGAVIVKEAGGFVFDPSGSEFDLTARRVAATNAHLKDAFIKALNE
notes: tag removal not mentioned
Km [1]: 280 µM | Km [2]: 290 µM
